Results taken from patent publication US20240174727A1, “LONG-ACTING NATRIURETIC PEPTIDES AND USES THEREOF” (Eli Lilly and Company, priority 2022, published 2024).
Changes are numbered by the printed parent chain. Numbered stars: 1 amine (or outer) side, 2 acyl side, 3 side chain; on linkers, the order of the positions; unused ones are H or OH. Bridge positions count the residues as written; N and C are the ends. Square brackets hold non-standard residues; d marks the D form. Primed or numbered codes have the meaning given here. * marks the point of attachment. thioacetal = thioacetal linkage between two cysteines (intrachain bond at the bracketed Cys); C20 diacid = O=C(O)CCCCCCCCCCCCCCCCCCC(=O)*; C16 diacid = O=C(O)CCCCCCCCCCCCCCC(=O)*; γGlu = O=C(O)[C@H](CCC(=O)[*:2])N[*:1]; 4Pal = N[C@@H](Cc1ccncc1)C(=O)O; thioacetal″ = not defined here; Aib = CC(C)(N)C(=O)O; βAla = NCCC(=O)O

T1: human NPRA (human, UniProt P16066 33-1061)
T1 sequence (looked up): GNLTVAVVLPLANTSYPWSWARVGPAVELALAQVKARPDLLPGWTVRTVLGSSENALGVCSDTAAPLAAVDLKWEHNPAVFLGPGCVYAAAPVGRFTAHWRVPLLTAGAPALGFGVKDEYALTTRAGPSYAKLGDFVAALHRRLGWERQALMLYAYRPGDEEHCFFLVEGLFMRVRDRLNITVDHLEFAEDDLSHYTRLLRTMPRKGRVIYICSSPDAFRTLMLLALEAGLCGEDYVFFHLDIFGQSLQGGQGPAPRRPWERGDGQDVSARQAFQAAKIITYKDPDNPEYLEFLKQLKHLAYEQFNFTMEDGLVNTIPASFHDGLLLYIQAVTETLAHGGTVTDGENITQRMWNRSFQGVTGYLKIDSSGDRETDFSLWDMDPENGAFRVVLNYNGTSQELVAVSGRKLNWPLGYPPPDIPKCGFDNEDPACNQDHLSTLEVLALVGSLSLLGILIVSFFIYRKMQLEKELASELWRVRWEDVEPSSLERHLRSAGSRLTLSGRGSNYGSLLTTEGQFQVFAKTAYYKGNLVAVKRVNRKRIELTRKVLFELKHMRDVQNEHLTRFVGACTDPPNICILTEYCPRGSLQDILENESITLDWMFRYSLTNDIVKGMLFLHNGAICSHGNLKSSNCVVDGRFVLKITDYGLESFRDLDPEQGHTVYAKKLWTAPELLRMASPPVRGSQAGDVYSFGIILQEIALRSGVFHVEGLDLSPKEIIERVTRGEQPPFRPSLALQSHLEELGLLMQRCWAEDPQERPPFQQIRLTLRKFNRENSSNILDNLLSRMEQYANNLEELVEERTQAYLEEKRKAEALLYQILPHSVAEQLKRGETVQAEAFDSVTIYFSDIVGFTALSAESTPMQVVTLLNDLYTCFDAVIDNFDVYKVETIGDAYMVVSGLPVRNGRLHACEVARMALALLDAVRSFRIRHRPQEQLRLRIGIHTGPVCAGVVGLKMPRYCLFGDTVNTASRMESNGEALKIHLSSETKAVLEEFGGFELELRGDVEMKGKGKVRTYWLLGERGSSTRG

T2: rat NPRA (rat, UniProt P18910 29-1057)
T2 sequence (looked up): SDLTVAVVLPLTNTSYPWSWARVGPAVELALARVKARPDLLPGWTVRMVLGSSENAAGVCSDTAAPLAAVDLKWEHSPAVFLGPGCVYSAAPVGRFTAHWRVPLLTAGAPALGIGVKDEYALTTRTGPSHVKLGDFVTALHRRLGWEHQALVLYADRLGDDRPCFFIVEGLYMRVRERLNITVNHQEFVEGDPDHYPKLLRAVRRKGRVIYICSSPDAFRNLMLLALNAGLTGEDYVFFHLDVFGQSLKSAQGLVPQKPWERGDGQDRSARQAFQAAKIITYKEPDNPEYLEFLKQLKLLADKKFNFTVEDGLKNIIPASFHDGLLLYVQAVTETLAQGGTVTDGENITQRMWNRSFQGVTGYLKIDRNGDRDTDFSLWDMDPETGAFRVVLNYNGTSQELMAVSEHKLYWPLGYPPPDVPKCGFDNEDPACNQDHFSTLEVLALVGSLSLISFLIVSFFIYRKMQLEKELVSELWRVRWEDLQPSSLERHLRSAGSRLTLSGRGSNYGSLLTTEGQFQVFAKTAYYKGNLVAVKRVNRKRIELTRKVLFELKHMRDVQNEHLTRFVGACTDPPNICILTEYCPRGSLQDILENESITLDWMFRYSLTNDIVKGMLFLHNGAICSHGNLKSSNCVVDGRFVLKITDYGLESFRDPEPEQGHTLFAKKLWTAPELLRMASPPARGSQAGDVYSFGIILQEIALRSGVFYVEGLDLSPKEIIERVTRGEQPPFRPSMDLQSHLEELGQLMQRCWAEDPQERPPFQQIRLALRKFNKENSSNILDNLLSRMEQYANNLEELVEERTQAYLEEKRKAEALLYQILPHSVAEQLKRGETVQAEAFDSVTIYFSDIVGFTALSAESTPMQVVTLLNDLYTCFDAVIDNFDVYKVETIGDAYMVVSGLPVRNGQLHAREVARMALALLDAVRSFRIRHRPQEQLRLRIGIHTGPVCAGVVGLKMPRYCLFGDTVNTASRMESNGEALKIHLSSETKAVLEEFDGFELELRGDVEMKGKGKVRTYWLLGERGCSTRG

B1: Example 74 (peptide)
peptide: {C20 diacid}-[γGlu]EKEKEKGEK[βAla]RSSCFGGRIDRIGHYSGLGCPSFRHGGKSSGAPPPS-NH2
modifications: bridge 15-31 via thioacetal
B2: Example 73 (peptide)
peptide: {C16 diacid}-[γGlu]EKEKEKGEK[βAla]RSSCFGGRIDRIGHYSGLGCPSFRHGGKSSGAPPPS-NH2
modifications: bridge 15-31 via thioacetal
B3: Example 80 (peptide)
peptide: {C20 diacid}-[γGlu]EKEKEKGS[4Pal]RRSSCFGRKIDRIGHQSGLGCPSFRHGGKSSGAPPPS-NH2
modifications: bridge 15-31 via thioacetal
B4: Example 79 (peptide)
peptide: {C20 diacid}-[γGlu]EKEKEKGS[4Pal]RRSSCFGKRIDRIGHQSGLGCPSFRHGGKSSGAPPPS-NH2
modifications: bridge 15-31 via thioacetal
B5: Example 84 (peptide)
peptide: SXRRSSCFGGRIDRIGHQSGLGCPSFRHGGPPSXKPPPK
modifications: HOOC-(CH2)18-CO-(γGlu)-EKEKEKG-PEG24-S-4Pal-RRSS[CFGGRIDRIGHQSGLGC]PSFRHGGPPS-Aib-KPPPK-NH2; thioacetal linkage between the bracketed Cys
B6: Example 81 (peptide)
peptide: {C20 diacid}-[γGlu]EKEKEKGS[4Pal]RRSSCFGKRIDRIGHYSGLGCPSFRHGGKSSGAPPPS-NH2
modifications: bridge 15-31 via thioacetal″; reading uncertain
B7: Example 72 (peptide)
peptide: {C20 diacid}-[γGlu]EKEKEKGS[4Pal]RRSSCFGGRIDRIGHQSGLGCPSFRHGGKSSGAPPPS-NH2
modifications: bridge 15-31 via thioacetal
B8: Example 71 (peptide)
peptide: {C20 diacid}-[γGlu]EKEKEKGS[4Pal]RRSSCFGGRIDRIGHQSGLGCPSFRHGGPPS[Aib]KPPPK-NH2
modifications: bridge 15-31 via thioacetal
B9: Example 76 (peptide)
peptide: {C20 diacid}-[γGlu]EKEKEKGEK[βAla]RSSCFGGRIDRIGHYSGLGCPSFRHGGKSSGAPPPS-NH2
modifications: bridge 15-31 via thioacetal
B10: Example 4 (peptide)
peptide: EKXRSSCFGKRIDRIGHQSGLGCPSFRHGSPSSGAPPPS
modifications: HOOC-(CH2)18-CO-(γGlu)-EKEKEKG-PEG24-EK-βAla-RSS[CFGKRIDRIGHQSGLGC]PSFRHGSPSSGAPPPS-NH2; thioacetal linkage between the bracketed Cys
B11: Example 88 (peptide)
peptide: B10 peptide with S30G, P31K
modifications: HOOC-(CH2)18-CO-(γGlu)-EKEKEKG-(AEEA)4-EK-βAla-RSS[CFGKRIDRIGHQSGLGC]PSFRHGGKSSGAPPPS-NH2; thioacetal linkage between the bracketed Cys
B12: Example 75 (peptide)
peptide: SXRRSSCFGGRIDRIGHQSGLGCPSFRHGGKSSGAPPPS
modifications: HOOC-(CH2)18-CO-(γGlu)-EKEKEKG-PEG24-S-4Pal-RRSS[CFGGRIDRIGHQSGLGC]PSFRHGGKSSGAPPPS-NH2; thioacetal linkage between the bracketed Cys
B13: Example 83 (peptide)
peptide: B12 peptide
modifications: HOOC-(CH2)18-CO-(γGlu)-EKEKEKG-(AEEA)4-S-4Pal-RRSS[CFGGRIDRIGHQSGLGC]PSFRHGGKSSGAPPPS-NH2; thioacetal linkage between the bracketed Cys
B14: Example 82 (peptide)
peptide: B12 peptide
modifications: HOOC-(CH2)18-CO-(γGlu)-EKEKEKG-PEG12-S-4Pal-RRSS[CFGGRIDRIGHQSGLGC]PSFRHGGKSSGAPPPS-NH2; thioacetal linkage between the bracketed Cys
B15: Example 86 (peptide)
peptide: B12 peptide
modifications: HOOC-(CH2)18-CO-(γGlu)-EKEKEKG-(AEEA)6-S-4Pal-RRSS[CFGGRIDRIGHQSGLGC]PSFRHGGKSSGAPPPS-NH2; thioacetal linkage between the bracketed Cys
B16: Example 87 (peptide)
peptide: B12 peptide with G10K
modifications: HOOC-(CH2)18-CO-(γGlu)-EKEKEKG-(AEEA)8-S-4Pal-RRSS[CFGKRIDRIGHQSGLGC]PSFRHGGKSSGAPPPS-NH2; thioacetal linkage between the bracketed Cys
B17: Example 70 (peptide)
peptide: {C20 diacid}-[γGlu]EKEKEKGEK[βAla]RSSCFGGRIDRIGHYSGLGCPSFRHGGPSSGAPPPS-NH2
modifications: bridge 15-31 via thioacetal
B18: Example 69 (peptide)
peptide: XEKEKEKGSXRRSSCFGGRIDRIGHQSGLGCPSFRHGGPSSGAPPPS
modifications: not fully specified; HOOC-(CH2)18-CO-(γGlu)-EKEKEKGS-4Pal-RRSS[CFGGRIDRIGHQSGLGC]PSFRHGGPSSGAPPPS-NH2; thioacetal linkage between the bracketed Cys

Experiments:
human NPRA = target: T1, human NPRA; assay: cell-based or functional assay
rat NPRA = target: T2, rat NPRA; assay: cell-based or functional assay

Row | Binder | cGMP Assay (EC50, pM) w/BSA (human NPRA) [pM] | cGMP Assay (EC50, pM) w/Casein (human NPRA) [pM] | cGMP Assay (EC50, pM) w/BSA (rat NPRA) [pM] | cGMP Assay (EC50, pM) w/Casein (rat NPRA) [pM]
1 | B1 | 171000 | 1590 | 1.13e+06 | 5820
2 | B2 | 5820 | 1230 | 76400 | 26000
3 | B3 | 4750 | 234 | 364000 | 3550
4 | B4 | 4580 | 273 | 261000 | 3440
5 | B5 | 9730 | 1010 | 547000 | 24600
6 | B6 | 5710 | 388 | 127000 | 1910
7 | B7 | 46400 | 588 | 1.07e+06 | 40500
8 | B8 |  | 594 | 594000 | 21000
9 | B9 | 79900 | 2620 | 607000 | 8280
10 | B10 | 6180 | 813 | 519000 | 22500
11 | B11 | 16300 | 520 | 1.05e+06 | 11400
12 | B12 | 17000 | 1060 | 533000 | 23800
13 | B13 | 38400 | 1040 | 860000 | 16700
14 | B14 | 32600 | 623 | 836000 | 25400
15 | B15 | 25200 | 1020 | 868000 | 17900
16 | B16 | 3380 | 621 | 463000 | 8870
17 | B17 | 92500 | 1840 | 712000 | 11800
18 | B18 | 61400 |  | 804000 | 
